# According to publication PMC3009601, “Structural Basis for Apoptosis Inhibition by Epstein-Barr Virus BHRF1” (PLoS Pathogens, 2010):
# Assays:
# [1] = molecular target: T1, BHRF1 (recombinant; BHRF1ΔC31) (Epstein-barr virus strain ag876, UniProt P0C6Z1); assay: biosensor assay; assay type: binding
# T1 construct: C-terminally truncated (last 31 residues removed, ΔC31), His-tagged, E. coli BL21(DE3) pLysS; the ABT-737 sentence says only 'recombinant BHRF1'
# [2] = molecular target: BHRF1ΔC31 (Epstein-Barr virus) (UniProt P03182); assay: ITC; VP-ITC (MicroCal), recombinant BHRF1ΔC31 with BH3 domain peptides; Kd values are the means of 3 experiments ± SD
# BHRF1ΔC31 [3] = molecular target: T2, BHRF1ΔC31 (Epstein-Barr virus, UniProt P03182); assay: as above; details: both partners purified
# T2 construct: Epstein-Barr virus BHRF1 (viral Bcl-2 homolog) lacking the C-terminal 31 residues (ΔC31); electron density seen for residues 2-158 in the Bim complex; Cloned into pET DUET with BamHI and EcoRI; also called recombinant C-terminally truncated form of BHRF1; recombinant BHRF1; source: E. coli BL21 DE3 pLysS, purified (nickel Hi-Trap chelating column, Superdex 200 gel filtration)
# T2 sequence: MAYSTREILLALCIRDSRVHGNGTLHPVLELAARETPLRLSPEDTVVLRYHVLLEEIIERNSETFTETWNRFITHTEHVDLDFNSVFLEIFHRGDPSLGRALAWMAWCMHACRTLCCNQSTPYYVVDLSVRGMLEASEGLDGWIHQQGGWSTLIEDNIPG
# BHRF1ΔC31 [4] = molecular target: T3, BHRF1ΔC31 (Epstein-Barr virus, UniProt P03182); assay: ITC
# T3 chain: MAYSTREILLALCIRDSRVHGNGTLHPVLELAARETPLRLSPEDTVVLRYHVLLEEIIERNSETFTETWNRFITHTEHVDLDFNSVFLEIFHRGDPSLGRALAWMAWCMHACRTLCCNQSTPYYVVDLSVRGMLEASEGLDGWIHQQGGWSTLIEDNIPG
Molecule,Kd [2] [nM],Kd (BHRF1ΔC31 [3]) [nM],further results
CN(C)CC[C@H](CSc1ccccc1)Nc1ccc(S(=O)(=O)NC(=O)c2ccc(N3CCN(Cc4ccccc4-c4ccc(Cl)cc4)CC3)cc2)cc1[N+](=O)[O-] [ABT-737],,,IC50 [1]: > 20 µM
human Bak BH3 26-mer peptide,150,,
human Bim BH3 26-mer peptide,18,,
human Puma BH3 26-mer peptide,70,,
SESQEDIIRNIARHLAQVGDSMDRSIPPGLVNGL [human Bid BH3 34-mer peptide],,110,
PQDASTKKLSECLKRIGDELDSNMELQR [human Bax BH3 28-mer peptide],,> 1000,Kd (BHRF1ΔC31 [4]): 1400 nM
